Source: paper PMC10444775 (Scientific Reports, 2023)

Key:
Details in all cases: both partners purified
[1] = target: CoV-2-S-RBD construct used for x-ray crystallography (SARS-CoV-2, UniProt P0DTC2); test: crystal structure
[2] = target: SARS-CoV-2 RBD domain (used for HDX-MS of 7A9) (SARS-CoV-2, reference strain …); test: HDX-MS
[3] = target: CoV-2-S-RBD-SD1 spike construct (SARS-CoV-2, UniProt P0DTC2); test: ELISA

Measured: binding result

B1: 7A9 VHH (VHH)
VHH: QVQLVESGGGLVQAGGSLRLSCSASGGTASRSAMGWFRQAPGKEREFVAGISRRNSGSTYVADSYEDSVKGRFTISRDNAKNTIYLQMNSLKPEDTAVYYCAAEPTLGWYVPRRSVEYEYWGQGTQVTVSS
binds: all assays above
